# Source: patent US20220249679A1 (MITSUBISHI TANABE PHARMA, published 2022)
# Values joined by “and” are separate entries in the source; they are usually repeats but may differ in a detail not shown here. Identical values can stand only once.
# What was measured:
# Human CD138 His [1] = molecular target: T1, Human CD138 His (human, UniProt P18827 23-254); experiment: SPR, summary table
# T1 construct: also called hCD138
# T1 sequence: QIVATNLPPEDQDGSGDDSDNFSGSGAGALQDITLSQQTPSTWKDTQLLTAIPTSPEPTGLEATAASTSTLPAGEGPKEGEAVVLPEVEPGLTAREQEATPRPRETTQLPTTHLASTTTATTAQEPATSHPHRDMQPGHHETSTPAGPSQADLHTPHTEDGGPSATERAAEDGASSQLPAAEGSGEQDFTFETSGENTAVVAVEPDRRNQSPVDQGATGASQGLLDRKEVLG
# Protocol: (§1) Murine IgGs were purified from the hybridoma supernatants and the IgGs were subject to SPR (surface plasmon resonance) for kinetic binding measurements. Human or mouse CD138 His was immobilized on a GLM chip at […] on a BioRad Proteon. […] KDs were measured using bivalent analyte fit.
# Mouse CD138 His = molecular target: T2, Mouse CD138 His (mouse, UniProt P18828 23-255); experiment: SPR, mouse CD138 His immobilized
# T2 construct: also called mCD138
# T2 sequence: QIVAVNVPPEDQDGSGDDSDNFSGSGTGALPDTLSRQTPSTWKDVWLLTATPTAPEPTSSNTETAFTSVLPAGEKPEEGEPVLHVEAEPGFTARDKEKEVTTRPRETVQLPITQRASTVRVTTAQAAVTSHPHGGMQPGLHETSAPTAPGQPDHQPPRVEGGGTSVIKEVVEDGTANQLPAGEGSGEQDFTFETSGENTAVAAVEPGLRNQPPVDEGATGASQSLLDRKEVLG
# Protocol: as §1
# Human CD138 His [2] = molecular target: T1, Human CD138 His; experiment: SPR (BioRad Proteon), CD138 His immobilized, bivalent analyte fit
# Protocol: as §1
# [3] = molecular target: T3, Human syndecan-1 (CD138) on the cell surface (human, UniProt P18827 23-310); experiment: FACS on KMS-11 cells, four parameter fit
# T3 construct: Endogenous on H929, KMS-11 and RT112/84 cells or transfected into Expi293 cells; also called human CD138; hCD138
# T3 sequence: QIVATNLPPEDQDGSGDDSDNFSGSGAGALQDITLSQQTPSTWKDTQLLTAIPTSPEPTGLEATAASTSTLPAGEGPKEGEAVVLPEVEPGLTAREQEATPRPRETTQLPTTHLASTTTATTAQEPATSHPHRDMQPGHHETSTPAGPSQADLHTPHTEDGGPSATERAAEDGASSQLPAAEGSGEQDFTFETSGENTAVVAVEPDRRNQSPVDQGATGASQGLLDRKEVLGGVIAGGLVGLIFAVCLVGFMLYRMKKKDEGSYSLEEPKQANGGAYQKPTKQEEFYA
# Protocol: (§2) Analysis of cell-surface binding to human CD138 was performed on 9 representative humanized anti-CD138 antibodies by FACS (FIG. 7). […] Two cell lines expressing moderate levels of CD138 were used to test binding; multiple myeloma cell line KMS-11 and bladder cancer line RT112/84. […] EC50s were calculated using four parameter fit curves (Table 20). The constructs were also tested against ARH-77 cells, which are CD138 negative lymphoblasts.
# [4] = molecular target: T3, Human syndecan-1 (CD138) on the cell …; experiment: summary table; repeats the EC50 (nM) of Table 20, unit not given
# Protocol: as §2
# Human CD138-Fc protein [5] = molecular target: T4, Human CD138-Fc protein (human, UniProt P18827 23-254); experiment: ELISA, plate-coated human CD138-Fc
# T4 construct: also called hCD138-Fc
# T4 sequence: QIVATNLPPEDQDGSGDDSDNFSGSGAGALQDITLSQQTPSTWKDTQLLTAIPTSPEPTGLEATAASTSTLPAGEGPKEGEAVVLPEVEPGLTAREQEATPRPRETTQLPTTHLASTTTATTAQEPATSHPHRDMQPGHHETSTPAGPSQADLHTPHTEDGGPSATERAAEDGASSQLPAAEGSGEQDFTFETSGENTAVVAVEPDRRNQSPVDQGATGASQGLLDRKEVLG
# Protocol: (§3) A CD138 binding ELISA was performed with 9 representative humanized antibodies to determine binding to portion of the linear CD138 peptide used for immunization (FIG. 7). […] Coated plates were incubated with various dilutions of each of the 9 representative antibodies overnight and binding was detected with a goat anti-human IgG (H+L)-HRP. EC50s were determined using four parameter fit curves (Table 21). An ELISA was also performed to detect binding to plate-coated human CD138-Fc protein (Table 21).
# [6] = molecular target: T5, hCD138 peptide AGEGPKEGEAVVLP (human); experiment: ELISA, plate-coated hCD138 peptide
# T5 construct: Portion of the linear CD138 peptide used for immunization; also the peptide in the crystal structure; also called syndecan-1 peptide
# T5 peptide: AGEGPKEGEAVVLP
# Protocol: as §3
# Human CD138-Fc protein [7] = molecular target: T4, Human CD138-Fc protein; experiment: summary table; repeats the EC50 (nM) of Table 21, unit not given
# Protocol: as §3
# [8] = molecular target: T3, Human syndecan-1 (CD138) on the cell …; experiment: FACS on RT-112 cells, four parameter fit
# Protocol: as §2
# [9] = molecular target: T6, hCD138 (ELISA of Table 29) (human, UniProt P18827 23-254, limits assumed); experiment: hCD138 ELISA
# T6 construct: also called human CD138
# T6 sequence: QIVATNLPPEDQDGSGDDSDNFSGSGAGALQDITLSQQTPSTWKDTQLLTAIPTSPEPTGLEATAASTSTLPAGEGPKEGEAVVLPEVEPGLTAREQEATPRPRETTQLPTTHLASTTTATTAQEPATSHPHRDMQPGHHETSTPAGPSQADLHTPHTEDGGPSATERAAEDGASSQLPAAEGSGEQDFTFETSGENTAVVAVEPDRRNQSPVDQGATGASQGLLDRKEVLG
Binder,Kd (Human CD138 His [1]),binding result (Mouse CD138 His),Kd (Human CD138 His [2]),koff (Human CD138 His [2]),kon (Human CD138 His [2]),EC50 [3],FACS binding (KMS11) [4],EC50 (Human CD138-Fc protein [5]),EC50 [6],ELISA CD138 Fc binding (Human CD138-Fc protein [7]),EC50 [8],EC50 [9]
"F11AP11E5 (antibody, V domains shown, Murine IgG purified from hybridoma supernatant) VH: QVQLQQSGAELVKPGASVKLSCKASGYTFTNYYMYWVKQRPGQGLEWIGEINPGNGGTNFNEKFKNKATLTVDKSSSTAYMQLSSLTSEDSAVYYCTTRFAYWGQGTLVIVSA VL: DVVMTQTPLSLSVTIGQPASISCKSGQSLLYSNGKTYLTWLQQRPGQAPKLLMYQVSKLDPGIPDRFSGSGSETDFTLKISRVEAEDLGVYYCLQNTYYPHTFGAGTKLELKR",92 nM,no binding (tested: 167 nM),91.6 nM,0.0117 s⁻¹,128000 M⁻¹ s⁻¹,,,,,,,
"F6 ckf-rep (antibody, V domains shown, Humanized F12P16F6 expressed as whole antibody with human constant regions (kappa light chain)) VH: QVQLVQSGAEVVKPGASVKLSCKASGYTFTSYYLYWVKKAPGQGLDWIGEIYPRSGGTNINEKFLSRVTLTADTSTSTAYLELSSLTSEDTAVYYCTRSLLYWGQGTTLTVSS VL: DVVMTQSPLSLSVTLGQPASISCKSSQSLLASDGKTYLNWLQQRPGQSPRRLIYLVSKLDSGVPNRFSGSGSGTDFTLQISRVEAEDVGLYYCWQGAHFPFTFGSGTKLEIKR",,,,,,1.64 nM,1.64,0.535 nM,0.981 nM,0.535,2.09 nM,
"F6 cks-rep (hF6) (antibody, human IgG1, kappa, V domains shown, Humanized IgG1/kappa antibody; also called hF6 (no Fynomer)) VH: QVQLVQSGAEVVKPGASVKLSCKASGYTFTSYYLYWVKKAPGQGLDWIGEIYPRSGGTNINEKFLSRVTLTADTSTSTAYLELSSLTSEDTAVYYCTRSLLYWGQGTTLTVSS VL: DVVMTQTPLSLSVTPGQPASISCKSSQSLLASDGKTYLNWLLQRPGQSPKRLIYLVSKLDSGVPNRFSGSGSGTDFTLQISRVEAEDVGLYYCWQGAHFPFTFGSGTKLEIKR",,,,,,1.2 nM,1.2,0.197 nM,0.33 nM,0.197,2.2 nM,0.56 nM
"F6 cka-rep (antibody, V domains shown, Humanized F12P16F6 expressed as whole antibody with human constant regions (kappa light chain)) VH: QVQLVQSGAEVVKPGASVKLSCKASGYTFTSYYLYWVKKAPGQGLDWIGEIYPRSGGTNINEKFLSRVTLTADTSTSTAYLELSSLTSEDTAVYYCTRSLLYWGQGTTLTVSS VL: DVVMTQTPLSLSVTPGQPASISCKSSQSLLASDGKTYLNWLLQRPGQSPKRLIYLVSKLDSGVPNRFSGSGSGTDFTLQISRVEAEDVGLYYCMQGAHFPFTFGGGTKVEIKR",,,,,,1.3 nM,1.3,0.855 nM,1.65 nM,0.855,2.44 nM,
"F6 aks-rep (antibody, V domains shown, Humanized F12P16F6 expressed as whole antibody with human constant regions (kappa light chain)) VH: QVQLVQSGAEVVKPGASVKLSCKASGYTFTSYYLYWVKKAPGQGLDWIGEIYPRSGGTNYAEKFQGRVTLTADTSTSTAYLELSSLTSEDTAVYYCTRSLLYWGQGTTLTVSS VL: DVVMTQTPLSLSVTPGQPASISCKSSQSLLASDGKTYLNWLLQRPGQSPKRLIYLVSKLDSGVPNRFSGSGSGTDFTLQISRVEAEDVGLYYCWQGAHFPFTFGSGTKLEIKR",,,,,,1.36 nM,1.36,0.969 nM,1.28 nM,0.969,2.13 nM,
"F6 f2kf-rep (antibody, V domains shown, Humanized F12P16F6 expressed as whole antibody with human constant regions (kappa light chain)) VH: QVQLQQSGAEVVKPGASVKLSCKASGYTFTSYYLYWVKKAPGQGLDWIGEIYPRSGGTNINEKFLSRVTITADESTSTVYMQLSSLTSEDSAVYYCTRSLLYWGQGTTLTVSS VL: DVVMTQSPLSLSVTLGQPASISCKSSQSLLASDGKTYLNWLQQRPGQSPRRLIYLVSKLDSGVPNRFSGSGSGTDFTLQISRVEAEDVGLYYCWQGAHFPFTFGSGTKLEIKR",,,,,,1.81 nM,1.81,0.405 nM,0.726 nM,0.405,2.46 nM,
"F6 akf-rep (antibody, V domains shown, Humanized F12P16F6 expressed as whole antibody with human constant regions (kappa light chain)) VH: QVQLVQSGAEVVKPGASVKLSCKASGYTFTSYYLYWVKKAPGQGLDWIGEIYPRSGGTNYAEKFQGRVTLTADTSTSTAYLELSSLTSEDTAVYYCTRSLLYWGQGTTLTVSS VL: DVVMTQSPLSLSVTLGQPASISCKSSQSLLASDGKTYLNWLQQRPGQSPRRLIYLVSKLDSGVPNRFSGSGSGTDFTLQISRVEAEDVGLYYCWQGAHFPFTFGSGTKLEIKR",,,,,,1.09 nM,1.09,0.879 nM,1.54 nM,0.879,1.88 nM,
"F6 f1kf-rep (antibody, V domains shown, Humanized F12P16F6 expressed as whole antibody with human constant regions (kappa light chain)) VH: QVQLQQSGAEVVKPGASVKLSCKASGYTFTSYYLYWVKKAPGQGLDWIGEIYPRSGGTNINEKFLSRVTLTADTSTSTAYMDLSSLTSEDTAVYYCTRSLLYWGQGTTLTVSS VL: DVVMTQSPLSLSVTLGQPASISCKSSQSLLASDGKTYLNWLQQRPGQSPRRLIYLVSKLDSGVPNRFSGSGSGTDFTLQISRVEAEDVGLYYCWQGAHFPFTFGSGTKLEIKR",,,,,,0.94 nM,0.94,0.225 nM,0.413 nM,0.225,1.93 nM,
"F6 f1ka-rep (antibody, V domains shown, Humanized F12P16F6 expressed as whole antibody with human constant regions (kappa light chain)) VH: QVQLQQSGAEVVKPGASVKLSCKASGYTFTSYYLYWVKKAPGQGLDWIGEIYPRSGGTNINEKFLSRVTLTADTSTSTAYMDLSSLTSEDTAVYYCTRSLLYWGQGTTLTVSS VL: DVVMTQTPLSLSVTPGQPASISCKSSQSLLASDGKTYLNWLLQRPGQSPKRLIYLVSKLDSGVPNRFSGSGSGTDFTLQISRVEAEDVGLYYCMQGAHFPFTFGGGTKVEIKR",,,,,,0.83 nM,0.83,0.433 nM,0.744 nM,0.433,1.39 nM,
"F6 f1ks-rep (antibody, V domains shown, Humanized F12P16F6 expressed as whole antibody with human constant regions (kappa light chain)) VH: QVQLQQSGAEVVKPGASVKLSCKASGYTFTSYYLYWVKKAPGQGLDWIGEIYPRSGGTNINEKFLSRVTLTADTSTSTAYMDLSSLTSEDTAVYYCTRSLLYWGQGTTLTVSS VL: DVVMTQTPLSLSVTPGQPASISCKSSQSLLASDGKTYLNWLLQRPGQSPKRLIYLVSKLDSGVPNRFSGSGSGTDFTLQISRVEAEDVGLYYCWQGAHFPFTFGSGTKLEIKR",,,,,,0.97 nM,0.97,0.762 nM,1.31 nM,0.762,2.73 nM,
"F12P7G11 (antibody, V domains shown, Murine IgG purified from hybridoma supernatant) VH: QVQLQQSGAELARPGASVKLSCKASGYTFSSHWMQWVKQRPGQGLEWIGAIYPGDGDTRFTQKFKGKATLTADKSSNTAYMQLSSLASEDSAVYYCARGIYYDRSRAMDYWGQGTSVTVSS VL: QIVLSQSPAILSASPGEKVTMTCRASSSVNYMHWYQQKPGSSPKHWIYATSYLASGVPARFSGSGSGTSYSLTISRVEAEDAATYYCQQWSSDPLTFGAGTKLELKR",9 nM,no binding (tested: 167 nM),8.66 nM and 8.6 nM,0.033 s⁻¹,3.81e+06 M⁻¹ s⁻¹,,,,,,,
"hF6-HC-G7 (bispecific antibody, human IgG1, kappa, IgG1/kappa) heavy: not shown light: DVVMTQTPLSLSVTPGQPASISCKSSQSLLASDGKTYLNWLLQRPGQSPKRLIYLVSKLDSGVPNRFSGSGSGTDFTLQISRVEAEDVGLYYCWQGAHFPFTFGSGTKLEIKRTVAAPSVFIFPPSDEQLKSGTASVVCLLNNFYPREAKVQWKVDNALQSGNSQESVTEQDSKDSTYSLSSTLTLSKADYEKHKVYACEVTHQGLSSPVTKSFNRGEC",,,,,,,,,,,,0.55 nM
